This note sets out measurements from US20230392166A1.

Some results are limits rather than exact numbers.

This assay has as its target GFP-BAX fusion protein. Briefly: cell-based or functional assay.

Turning to mCherry, the percentage of cells with GFP-BAX translocation to mitochondria within 3.5 h after 1 µM staurosporine, live imaging of D407 cells (control without BCLXL) was over 95%.
In turn, “mCherry-BCLXL fusion protein (from UniProt Q64373 1-233)” yielded a percentage of cells with punctate GFP-BAX (translocation to mitochondria) within 3.5 h after 1 µM staurosporine, live imaging of D407 cells of 8%.
